The results in this text go back to patent US20230235075A1 (published 2023).

As usually defined, the Kd is the free concentration of one partner at which half of the binding sites on the other are occupied at equilibrium, for simple one-to-one binding. For orientation: EC50 means the concentration giving half of the maximal effect.

Assay [1] addresses T1, Human CD93 recombinant protein (Sino Biological Inc, Catalog #12589-H08H) (human, UniProt Q9NPY3 22-580, biotinylated with EZ-LINK NHS-PEG4 biotin in the Octet assays).
T1 chain: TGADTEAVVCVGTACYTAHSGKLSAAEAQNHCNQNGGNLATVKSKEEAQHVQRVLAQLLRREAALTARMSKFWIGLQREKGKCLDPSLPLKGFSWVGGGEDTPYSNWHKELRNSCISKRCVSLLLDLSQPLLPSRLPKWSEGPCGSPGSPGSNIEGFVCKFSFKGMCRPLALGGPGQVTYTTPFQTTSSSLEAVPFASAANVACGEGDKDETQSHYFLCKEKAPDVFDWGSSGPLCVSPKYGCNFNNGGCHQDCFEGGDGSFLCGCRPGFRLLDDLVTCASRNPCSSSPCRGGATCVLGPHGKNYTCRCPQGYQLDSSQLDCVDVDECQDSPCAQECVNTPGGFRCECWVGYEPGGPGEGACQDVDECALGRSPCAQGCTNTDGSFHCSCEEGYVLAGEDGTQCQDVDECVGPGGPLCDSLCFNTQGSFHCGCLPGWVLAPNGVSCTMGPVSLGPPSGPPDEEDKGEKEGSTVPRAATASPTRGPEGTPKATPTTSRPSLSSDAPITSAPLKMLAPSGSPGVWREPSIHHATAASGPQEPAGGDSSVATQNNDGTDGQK
Description: BLI.

Assay [2] deals with T2, cynomolgus CD93 protein (made in-house) (cynomolgus, UniProt A0A2K5VH53 22-580, biotinylated with EZ-LINK NHS-PEG4 biotin in the Octet assays).
T2 chain: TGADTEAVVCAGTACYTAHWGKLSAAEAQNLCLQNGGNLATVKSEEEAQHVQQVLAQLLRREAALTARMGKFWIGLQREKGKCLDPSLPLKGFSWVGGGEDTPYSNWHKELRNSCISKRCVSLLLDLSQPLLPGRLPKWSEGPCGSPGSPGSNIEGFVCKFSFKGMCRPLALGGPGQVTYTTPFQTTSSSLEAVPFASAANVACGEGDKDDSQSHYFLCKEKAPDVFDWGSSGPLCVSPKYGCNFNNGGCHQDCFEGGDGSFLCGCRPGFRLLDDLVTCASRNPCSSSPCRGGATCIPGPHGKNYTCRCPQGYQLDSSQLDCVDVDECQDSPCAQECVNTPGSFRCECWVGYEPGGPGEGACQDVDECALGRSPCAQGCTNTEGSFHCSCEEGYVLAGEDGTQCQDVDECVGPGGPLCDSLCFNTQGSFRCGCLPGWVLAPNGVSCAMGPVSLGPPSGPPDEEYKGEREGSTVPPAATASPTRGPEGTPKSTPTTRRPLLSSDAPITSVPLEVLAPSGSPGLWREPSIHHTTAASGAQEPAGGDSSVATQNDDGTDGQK
Description: BLI. On the technique in general: Biolayer interferometry detects binding as a change in optical thickness at a sensor tip.

Assay [3] addresses T1, Human CD93 recombinant protein (Sino …). Description: Octet.
Assay [4] shares this target. Description: ELISA. For orientation: In an ELISA, binding on a coated surface is turned into a signal by an enzyme label.
The target is the same in assay [5]. Description: ELISA; unit printed as pmM.
Assay [6] shares this target. Description: ELISA.
Assay [7] has the same target. Kind of assay: ELISA.
The target is the same in assay [8]. Kind of assay: Octet BLI.
The target is the same in assay [9]. Description: BLI (Octet).

B1: 16E4 (hybridoma) (antibody, V domains shown)
VH: QVQLQQPGAELVKPGASVKLSCKASGYTFTSYWMHWVKQRPGQGLEWIGEIDPSASYTYYNQKFKGKATLTVDKSSSTAYMQLSSLTSEDSAVYYCARSVYYGNKYFDVWGAGTTVTVSS
VL: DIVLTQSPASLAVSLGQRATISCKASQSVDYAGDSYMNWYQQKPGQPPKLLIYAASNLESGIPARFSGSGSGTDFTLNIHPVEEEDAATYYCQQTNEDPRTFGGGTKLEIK
For the molecule B1, the Kd in assay [1] turned out to be 0.447 nM; in [2], 0.446 nM; in assay [3] it was 0.334 nM. For the same molecule, the EC50 in assay [4] and in assay [5] was 0.112 nM each time.

B2: 16E4-hIgG1 (antibody, V domains shown)
VH: B1 VH
VL: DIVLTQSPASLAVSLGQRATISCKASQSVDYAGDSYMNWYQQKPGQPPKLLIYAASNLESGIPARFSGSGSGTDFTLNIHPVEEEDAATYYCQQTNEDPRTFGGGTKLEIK
For B2, the results for the EC50 in assay [6], in [7] and in assay [4] were 0.041 nM, 0.022 nM and 0.041 nM, respectively. Also, the dissociation constant (Kd) in assay [3] and in assay [8] was 0.135 nM each time.

B3: 7F3 (hybridoma) (antibody, V domains shown)
VH: QVQLQQSGADLVRPGASVKLSCKASGYTFTDYEMHWVKQTPVYGLEWIGGIDPETGDTAYNQNFKGKATLTADKSSSAAYMELRSLTSEDSAVYYCTNYGNLYYYAMDYWGQGTSVTVSS
VL: ENVLTQSPAIMSASPGEKVTMTCRASSSVSSSYLHWYQQKSGASPKLWIYSTSNLAFGVPARFSGSGSGTSYSLTISSVEAEDAATYYCQQYSGYPLTFGSGTKLEIK
For B3, the Kd was 0.493 nM in assay [3] and 1.26 nM in assay [9]. The EC50 in assay [7] and in assay [4] was 0.0667 nM in each case.

B4: 7F3-hIgG1 (antibody, V domains shown)
VH: B3 VH
VL: B3 VL
Consider B4, for which the Kd in assay [3] and in assay [8] was 0.588 nM each time. In assay [4], the EC50 was found to be 0.041 nM.

B5: 10B1 (antibody, V domains shown)
VH: QVQLKQSGPGLVQPSQSLSITCTVSDFSLSSFGVNWVRQPPGKGLEWLGVIWSGGSTDYNVAFISRLSISKDNSKSQVFFKMNNLQADDTAIYYCARNWRYDGYFYAMDYWGQGTSVTVSS
VL: DIVMTQSQKFMSTSTGDRVSVTCKASQNVGTNVAWYQQKPGQSPKALIYSASYRFIGVPDRFTGSGSGTDFTLTITNVQSEDLAEYFCQQYNRNPITFGSGTKLEIK
As to B5, the Kd in [9] came out at 0.904 nM.

B6: recombinant parental 17B10-hFc (antibody, V domains shown)
VH: QVQLQQSGPELVKPGASVKISCKASGYAFSSYWLNWVKQRPGKGLEWFGRIYPGDGDTDYNGKFKGKATLTADKSSSTAYMQLRSLTSEDSAVYFCVRGDGYWAMDYWGQGTSVTVSS
VL: DIVMTQAAFSNPVTLGTSASISCRFSKSLLHSNGITYLYWYLQKPGQSPQLLIYQMSNLASGVPDRFSSSGSGTDFTLRISRVEAEDVGVYYCAQNLELPWTFGGGTKLEIK
Consider B6, for which the concentration for a half-maximal effect (EC50) in assay [6] worked out at 0.0167 nM.

B7: 17B10 (hybridoma) (antibody, V domains shown)
VH: B6 VH
VL: B6 VL
On to B7, for which the EC50 in [6] turned out to be 0.153 nM.

B8: Humanized 17B10 (VH3VL3, i.e., H3L3) (antibody, V domains shown)
VH: QVQLVQSGPEVKKPGESLKISCKASGYAFSSYWLNWVRQMPGKGLEWMGRIYPGDGDTDYNGKFKGQVTISADKSSGTAYLQLSSLKASDTAVYFCVRGDGYWAMDYWGQGTLVTVSS
VL: DIVMTQSPDSLAVSLGERATINCRFSKSLLHSNGITYLYWYQQKPGQPPKLLIYQMSNLASGVPDRFSGSGSGTDFTLTISSLQAEDVAVYYCAQNLELPWTFGGGTKLEIK
Consider B8, for which the EC50 in assay [6] was determined as 0.213 nM.
